Experimental data published in patent publication US20230039401A1 (ATYR PHARMA, published 2023).
One block for each binder: values may come before it.

Experiments:
[1] = molecular target: T1, NRP2-Fc (R&D Systems #2215-N2) (human, UniProt O60462 23-864, limits assumed); assay: SPR, WARS WHEP immobilised, 20 nM NRP2 as analyte
T1 construct: Bought reagent; also called human NRP2; Neuropilin 2; not shown: Fc of the bought fusion

[2] = molecular target: T1, NRP2-Fc (R&D Systems #2215-N2); assay: SPR, GARS Fc-WHEP immobilised, 20 nM NRP2 as analyte
[3] = molecular target: T1, NRP2-Fc (R&D Systems #2215-N2); assay: SPR (column: Binding to NRP2 observed by SPR)
[4] = molecular target: T2, NRP2a-GFP fusion protein on HEK293T cells (human, UniProt O60462 23-931); assay: immunofluorescence microscopy, competition on HEK293T cells overexpressing NRP2v2-GFP, GFP Bright gate; VEGF-C titrated, competitor 175 nM Fc-HRS(2-60)/anti-Fc-PE
T2 construct: Transiently transfected HEK293T cells, fixed before staining; also called NRP2v2-GFP; cell-expressed NRP2a; not shown: GFP and any linker of the Origene clone
Experimental: HEK293T cells previously transfected with NRP2v2-GFP were passed the night before staining to 96 well Greiner Clear flat bottomed Microplates pre-coated with collagen coating solution. Supernatants were removed and cells were washed 1 time with binding buffer. Cells were then fixed with 50 μL of 3.7% methanol-free formaldehyde for 20 minutes at room temperature. Cells were washed 2× with binding buffer and then blocked with 100 μL of blocking buffer for 1 hour at room temperature. The cells were then washed one time with binding buffer and then incubated with 50 μL of staining complex overnight at 4 degrees Celsius. […] The Hoechst stain was replaced with 1×PBS and subsequently read on an IN Cell Analyzer 2200. 20× images were acquired and analyzed using In Cell Analyzer 1000 Workstation software. Segmentation of the cell mask was achieved using the GFP channel, and the average PE signal intensity was determined within this mask above a threshold intensity of 5000 (termed GFP Bright cells).

[5] = molecular target: T1, NRP2-Fc (R&D Systems #2215-N2); assay: SPR, MARS Fc-WHEP immobilised, 20 nM NRP2 as analyte

binding result [1]: no binding (tested: 20 nM)
B1: WARS WHEP (other, UniProt P23381 8-64, looked up)
chain: SLLELFNSIATQGELVRSLKAGNASKDEIDSAVKMLVSLKMSYKAAAGEDYKADCPP
notes: domain: WHEP domain; also called WHEP domain of WARS with a V5/His tag; not shown: V5/His tag

binding result [2]: no binding (tested: 20 nM)
B2: GARS Fc-WHEP (Fc fusion, UniProt P41250 63-119, looked up)
chain: VLAPLRLAVRQQGDLVRKLKEDKAPQVDVDKAVAELKARKRVLEAKELALQPKDDIV
notes: domain: WHEP domain; also called Fc domain fused to the WHEP domain of GARS; not shown: Fc domain

binding result [3]: no binding
B3: VEGF-A121 (Peprotech #100-20A) (ligand, human, UniProt P15692-9 27-147, looked up)
chain: APMAEGGGQNHHEVVKFMDVYQRSYCHPIETLVDIFQEYPDEIEYIFKPSCVPLMRCGGCCNDEGLECVPTEESNITMQIMRIKPHQGQHIGEMSFLQHNKCECRPKKDRARQEKCDKPRR

IC50 (read off the curve) [4]: ~2 nM
B4: Recombinant Human VEGF-C Protein (R&D Systems cat 2179-VC-025/CF) (ligand, UniProt P49767 103-227, looked up)
chain: TEETIKFAAAHYNTEILKSIDNEWRKTQCMPREVCIDVGKEFGVATNTFFKPPCVSVYRCGGCCNSEGLQCMNTSTSYLSKTLFEITVPLSQGPKPVTISFANHTSCRCMSKLDVYRQVHSIIRR
notes: Reagent of the cell immunofluorescence assay; Its catalogue number differs from that of the SPR reagent

binding result [5]: no binding (tested: 20 nM)
B5: MARS Fc-WHEP (Fc fusion, UniProt P56192 841-897, looked up)
chain: QIQALMDEVTKQGNIVRELKAQKADKNEVAAEVAKLLDLKKQLAVAEGKPPEAPKGK
notes: domain: WHEP domain; also called Fc domain fused to the WHEP domain of MARS; not shown: Fc domain

binding result [3]: no binding
B6: VEGF-A145 (R&D Systems #7626-VE-CF) (ligand, human, UniProt P15692-6 27-171, looked up)
chain: APMAEGGGQNHHEVVKFMDVYQRSYCHPIETLVDIFQEYPDEIEYIFKPSCVPLMRCGGCCNDEGLECVPTEESNITMQIMRIKPHQGQHIGEMSFLQHNKCECRPKKDRARQEKKSVRGKGKGQKRKRKKSRYKSWSVCDKPRR
